Data: patent publication US20160376321A1 (BAYLOR COLLEGE OF MEDICINE, published 2016)

Target: soluble ACE2 (sACE2), containing 6xHis tag (R&D Systems) (human, UniProt Q9BYF1 18-740)
Assay: Ni-NTA pull-down with His-tagged sACE2, Western blot (FIG. 7B-C)

B1: recombinant protein containing RBD of Middle East respiratory syndrome coronavirus (MERS-CoV) (other)
chain: QAEGVECDFSPLLSGTPPQVYNFKRLVFTNCNYNLTKLLSLFSVNDFTCSQISPAAIASNCYSSLILDYFSYPLSMKSDLSVSSAGPISQFNYKQSFSNPTCLILATVPHNLTTITKPLKYSYINKCSRFLSDDRTEVPQLVNANQYSPCVSIVPSTVWEDGDYYRKQLSPLEGGGWLVASGSTVAMTEQLQMGFGITVQYGTDTNSVCPKL
B1: no binding (tested: 20 µg).
